In general, Kd refers to a measure of binding affinity in units of concentration.

In publication PMC12866682 (2025) one finds fold affinity over the WT or R47H TREM2 protein and Kd data, which are given here for two molecules.

One assay addresses T96K TREM2 protein (UniProt Q9NZC2). The experiment in a line: solid-phase binding (SPB) assay; WT, R47H or T96K TREM2 immobilised, MPO in solution (n=5); method not described in the text shown.
The target in a further assay is T1, Purified human MPO (human, UniProt P05164 49-745).
T1 chain: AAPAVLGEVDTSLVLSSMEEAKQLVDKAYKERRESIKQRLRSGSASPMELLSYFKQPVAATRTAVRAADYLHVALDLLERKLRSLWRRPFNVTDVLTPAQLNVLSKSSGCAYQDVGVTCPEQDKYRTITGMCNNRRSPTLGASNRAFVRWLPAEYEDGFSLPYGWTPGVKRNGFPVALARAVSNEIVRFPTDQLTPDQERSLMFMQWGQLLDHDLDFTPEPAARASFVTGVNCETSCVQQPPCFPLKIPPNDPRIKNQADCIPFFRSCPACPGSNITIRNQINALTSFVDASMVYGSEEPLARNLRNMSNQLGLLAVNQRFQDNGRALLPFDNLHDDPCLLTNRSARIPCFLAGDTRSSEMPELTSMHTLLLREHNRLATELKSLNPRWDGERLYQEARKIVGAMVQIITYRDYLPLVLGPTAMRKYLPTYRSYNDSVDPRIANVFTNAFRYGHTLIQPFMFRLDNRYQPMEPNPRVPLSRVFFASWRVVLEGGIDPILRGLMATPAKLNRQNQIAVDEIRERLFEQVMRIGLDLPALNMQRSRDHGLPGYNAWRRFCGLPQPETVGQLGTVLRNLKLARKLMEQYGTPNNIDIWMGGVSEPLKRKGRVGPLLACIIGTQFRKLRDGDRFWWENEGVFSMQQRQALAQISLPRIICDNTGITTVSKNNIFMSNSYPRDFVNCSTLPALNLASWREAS
The experiment in a line: SPR. (Surface plasmon resonance follows binding to a sensor surface in real time, without labels.)

The molecule “Purified human MPO (from UniProt P05164 49-745) (ligand)” gave a fold affinity over the WT or R47H TREM2 protein with T96K TREM2 protein of 1.3 fold.

B1: Purified human TREM2 protein (receptor)
chain: HNTTVFQGVAGQSLQVSCPYDSMKHWGRRKAWCRQLGEKGPCQRVVSTHNLWLLSFLRRWNGSTAITDDTLGGTLTITLRNLQPHDAGLYQCQSLHGSEADTLRKVLVEVLADPLDHRDAGDLWFPGESESFEDAHVEHSISRSLLEGEIPFPPTSILLLLACIFLIKILAASALWAAAWHGQKPGTHPPSELDCGHDPGYQLQTLPGLRDT
Molecule B1 returned a Kd in the assay with Purified human MPO of 551 nM.
